Test results taken from patent publication US20170174769A1.

Tests used:
[1] = target: mouse KLB and mouse FGFR1c co-expressed on HEK293/mKLB/mFGFR1c/SRE-Luc cells (mouse); assay: FACS on stable HEK293 cells, 33 nM
[2] = target: mouse KLB and mouse FGFR1c co-expressed on HEK293/mKLB/mFGFR1c/SRE-Luc cells (mouse); assay: FACS on stable HEK293 cells, 965 nM
[3] = target: extracellular domain of human FGFR1c expressed with C-terminal V5 and hexahistidine tags (human) (UniProt P11362); assay: SPR, mAb captured, 37 C
extracellular domain of human FGFR1c expressed with C-terminal V5 and hexahistidine tags (human), sequence (P11362 other isoform, or with tags, fused parts or gaps limits assumed): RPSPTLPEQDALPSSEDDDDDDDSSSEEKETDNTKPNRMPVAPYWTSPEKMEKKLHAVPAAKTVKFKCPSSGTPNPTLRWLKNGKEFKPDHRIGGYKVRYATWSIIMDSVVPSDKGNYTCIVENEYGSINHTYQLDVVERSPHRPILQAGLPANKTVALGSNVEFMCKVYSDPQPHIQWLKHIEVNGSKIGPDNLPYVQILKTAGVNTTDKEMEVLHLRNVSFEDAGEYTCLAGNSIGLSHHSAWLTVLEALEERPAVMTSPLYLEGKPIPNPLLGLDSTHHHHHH

[4] = target: extracellular domain of human KLB expressed with C-terminal HA and hexahistidine tags (human) (UniProt Q86Z14); assay: SPR, mAb captured, 37 C
extracellular domain of human KLB expressed with C-terminal HA and hexahistidine tags (human), sequence (Q86Z14 1-996 limits assumed): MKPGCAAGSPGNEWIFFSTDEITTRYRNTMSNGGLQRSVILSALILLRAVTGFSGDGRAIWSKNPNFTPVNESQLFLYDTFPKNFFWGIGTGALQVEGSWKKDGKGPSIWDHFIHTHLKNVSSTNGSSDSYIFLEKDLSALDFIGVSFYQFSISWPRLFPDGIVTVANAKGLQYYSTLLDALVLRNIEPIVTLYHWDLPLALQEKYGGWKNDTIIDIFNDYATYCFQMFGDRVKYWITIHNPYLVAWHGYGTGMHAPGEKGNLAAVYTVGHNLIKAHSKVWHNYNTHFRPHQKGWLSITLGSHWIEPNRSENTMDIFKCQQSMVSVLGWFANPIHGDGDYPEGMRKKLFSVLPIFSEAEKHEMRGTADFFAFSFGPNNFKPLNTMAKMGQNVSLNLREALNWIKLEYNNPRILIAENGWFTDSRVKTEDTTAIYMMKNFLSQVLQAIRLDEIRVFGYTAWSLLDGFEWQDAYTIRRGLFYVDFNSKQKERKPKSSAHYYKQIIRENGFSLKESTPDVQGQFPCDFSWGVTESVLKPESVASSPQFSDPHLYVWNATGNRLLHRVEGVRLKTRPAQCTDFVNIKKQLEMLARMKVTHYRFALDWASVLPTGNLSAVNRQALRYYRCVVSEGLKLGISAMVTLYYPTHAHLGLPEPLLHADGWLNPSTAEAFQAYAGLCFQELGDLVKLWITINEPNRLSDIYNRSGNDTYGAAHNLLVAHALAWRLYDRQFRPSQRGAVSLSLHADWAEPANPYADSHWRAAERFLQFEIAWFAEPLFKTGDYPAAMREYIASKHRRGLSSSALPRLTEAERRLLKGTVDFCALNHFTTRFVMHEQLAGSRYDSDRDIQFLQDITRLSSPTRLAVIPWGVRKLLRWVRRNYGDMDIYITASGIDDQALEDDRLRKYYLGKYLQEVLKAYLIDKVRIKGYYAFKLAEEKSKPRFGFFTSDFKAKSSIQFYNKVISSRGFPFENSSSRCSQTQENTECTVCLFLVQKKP

[5] = target: full-length human FGFR1c on HEK293/hFGFR1c/SRE-luc cells (human) (UniProt P11362); assay: FACS on stable HEK293 cells
full-length human FGFR1c on HEK293/hFGFR1c/SRE-luc cells (human), sequence (P11362 other isoform, or with tags, fused parts or gaps limits assumed): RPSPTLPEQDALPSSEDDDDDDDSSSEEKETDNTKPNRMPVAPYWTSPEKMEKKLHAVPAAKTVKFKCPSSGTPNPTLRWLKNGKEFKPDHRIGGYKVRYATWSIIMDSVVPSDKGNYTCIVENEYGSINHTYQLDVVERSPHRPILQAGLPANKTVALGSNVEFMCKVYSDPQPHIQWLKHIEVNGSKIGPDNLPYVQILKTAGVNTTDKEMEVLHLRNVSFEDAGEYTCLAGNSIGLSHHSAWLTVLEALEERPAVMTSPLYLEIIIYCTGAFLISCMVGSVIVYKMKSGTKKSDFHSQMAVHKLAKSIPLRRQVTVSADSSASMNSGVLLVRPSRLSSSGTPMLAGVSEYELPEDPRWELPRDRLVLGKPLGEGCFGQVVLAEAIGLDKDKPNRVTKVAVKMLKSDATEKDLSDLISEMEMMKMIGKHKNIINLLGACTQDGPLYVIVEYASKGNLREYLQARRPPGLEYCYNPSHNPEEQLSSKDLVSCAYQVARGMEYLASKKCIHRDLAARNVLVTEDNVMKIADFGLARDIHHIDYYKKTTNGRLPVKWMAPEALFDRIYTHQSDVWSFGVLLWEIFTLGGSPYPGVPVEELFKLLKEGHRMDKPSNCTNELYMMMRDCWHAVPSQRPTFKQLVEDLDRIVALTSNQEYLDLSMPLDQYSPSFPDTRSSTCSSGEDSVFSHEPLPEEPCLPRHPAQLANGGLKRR

[6] = target: full-length human KLB on HEK293/hKLB/SRE-luc cells (human) (UniProt Q86Z14); assay: FACS on stable HEK293 cells
full-length human KLB on HEK293/hKLB/SRE-luc cells (human), sequence (Q86Z14 whole entry): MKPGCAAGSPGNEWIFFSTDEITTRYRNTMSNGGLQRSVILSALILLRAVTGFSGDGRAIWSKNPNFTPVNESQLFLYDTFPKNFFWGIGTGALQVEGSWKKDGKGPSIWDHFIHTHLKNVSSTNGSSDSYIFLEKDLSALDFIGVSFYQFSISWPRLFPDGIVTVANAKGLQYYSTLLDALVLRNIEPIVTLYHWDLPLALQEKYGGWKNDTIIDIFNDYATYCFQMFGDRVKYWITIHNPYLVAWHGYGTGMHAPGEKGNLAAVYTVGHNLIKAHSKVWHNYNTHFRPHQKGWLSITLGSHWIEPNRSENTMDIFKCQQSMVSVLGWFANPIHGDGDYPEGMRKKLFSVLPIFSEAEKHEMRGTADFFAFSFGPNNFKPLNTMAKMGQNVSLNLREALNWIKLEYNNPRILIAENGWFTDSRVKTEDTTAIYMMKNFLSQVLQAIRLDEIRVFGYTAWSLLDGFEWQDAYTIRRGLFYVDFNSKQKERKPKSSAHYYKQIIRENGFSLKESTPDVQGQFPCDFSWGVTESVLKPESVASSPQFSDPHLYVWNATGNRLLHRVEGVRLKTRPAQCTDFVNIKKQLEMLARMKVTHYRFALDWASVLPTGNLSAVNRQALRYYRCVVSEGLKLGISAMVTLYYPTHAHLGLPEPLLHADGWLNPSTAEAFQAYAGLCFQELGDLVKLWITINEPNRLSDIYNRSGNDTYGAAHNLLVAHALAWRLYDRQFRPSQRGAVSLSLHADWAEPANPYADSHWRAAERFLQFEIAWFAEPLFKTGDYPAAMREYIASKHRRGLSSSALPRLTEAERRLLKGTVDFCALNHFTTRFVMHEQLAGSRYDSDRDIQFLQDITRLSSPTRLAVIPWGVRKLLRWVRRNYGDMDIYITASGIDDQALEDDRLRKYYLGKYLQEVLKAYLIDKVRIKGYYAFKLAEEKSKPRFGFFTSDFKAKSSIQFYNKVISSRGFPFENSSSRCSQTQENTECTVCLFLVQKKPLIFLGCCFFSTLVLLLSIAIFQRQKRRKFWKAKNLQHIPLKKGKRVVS

[7] = target: human KLB and human FGFR1c co-expressed on HEK293/hKLB/hFGFR1c/SRE-luc cells (human) (UniProt Q86Z14); assay: FACS on stable HEK293 cells
human KLB and human FGFR1c co-expressed on HEK293/hKLB/hFGFR1c/SRE-luc cells (human), sequence (Q86Z14 whole entry, chain 1 of 2, the tested form may be a part): as the sequence (Q86Z14 whole entry) above

[8] = target: extracellular domain of human FGFR1c expressed with C-terminal V5 and hexahistidine tags (human) (UniProt P11362); assay: SPR, mAb captured, 25 C
[9] = target: extracellular domain of human KLB expressed with C-terminal HA and hexahistidine tags (human) (UniProt Q86Z14); assay: SPR, mAb captured, 25 C

MFI Ratio to unstained cells [1] [fold] | MFI Ratio to unstained cells [2] [fold] | 180 nM hFGFR1c-V5-6His Bind (RU) [3] [RU] | Kd [3] [nM] | koff [3] [s⁻¹] | kon [3] [M⁻¹ s⁻¹] | t1/2 [3] [s] | 20 nM hKLB-HA-6His Bind (RU) [4] [RU] | binding ratio to unstained cells [5] [fold] | binding ratio to unstained cells [6] [fold] | binding ratio to unstained cells [7] [fold] | 180 nM hFGFR1c-V5-6His Bind (RU) [8] [RU] | Kd [8] [nM] | koff [8] [s⁻¹] | kon [8] [M⁻¹ s⁻¹] | t1/2 [8] [s] | 20 nM hKLB-HA-6His Bind (RU) [9] [RU] | Binder
1 | 2 |  |  |  |  |  |  |  |  |  |  |  |  |  |  |  | H1H8900P (antibody, V domains shown) VH: QVQLVESGGGVVQPGRSLRLSCVASGFTFSSYGMHWVRQAPGKGLEWVAVISFDGSNKYYADSVKGRFTISRDNSKNTLYLQMNSLRPADTAVYYCAKDRSNYYYFGMDVWGQGTTVTVSS VL: DIVMTQTPLSLPVTPGEPASISCRSSQSLLDSDDGNTYLDWYLQKPGQSPQLLIYTLSYRASGVPDRFSGSGSGTDFTLKISRVEAEDVGVYYCMQRIEFPLTFGGGTKVEIK
 |  | 88.8 | 8.76 | 0.0208 | 2.37e+06 | 36 | -1 | 27 | 2 | 33 | 16.4 | 4.12 | 0.0129 | 3.13e+06 | 54 | -1.1 | Comparator 3 (antibody, from another filing, V domains shown) VH: EVQLVQSGAEVKKPGASVKVSCKVSGYTFTDYYMHWVQQAPGKGLEWMGLVDPEDGETIYAEKFQGRVTITADTSTDTAYMELSSLRSEDTAVYYCARDDYMDVWGKGTLVTVSS VL: ETTLTQSPDTLSLSPGEGATLSCRASQSVSGSALAWYQQKPGQAPRLLIYDASSRATGVPDRFSGSGSGADFSLTISRLEPEDFAVYSCQQYGSSPLTFGPGTKVDVKR
